B1: CAP256V2LS-J3-2 (bispecific antibody)
heavy: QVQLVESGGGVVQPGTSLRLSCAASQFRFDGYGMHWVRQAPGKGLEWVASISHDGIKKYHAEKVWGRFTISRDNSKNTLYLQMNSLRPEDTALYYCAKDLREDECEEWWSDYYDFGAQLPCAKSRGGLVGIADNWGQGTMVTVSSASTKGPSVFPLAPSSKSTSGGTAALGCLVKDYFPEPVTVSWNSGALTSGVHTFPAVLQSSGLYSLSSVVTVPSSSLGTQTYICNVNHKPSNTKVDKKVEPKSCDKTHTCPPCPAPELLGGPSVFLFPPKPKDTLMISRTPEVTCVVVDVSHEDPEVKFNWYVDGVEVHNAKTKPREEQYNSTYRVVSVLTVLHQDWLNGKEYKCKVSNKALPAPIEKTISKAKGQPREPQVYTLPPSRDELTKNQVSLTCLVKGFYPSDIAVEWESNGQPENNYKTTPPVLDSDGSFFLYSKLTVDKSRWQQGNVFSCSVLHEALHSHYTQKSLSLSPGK
light: EVQLVESGGGLVQAGGFLRLSCELRGSIFNQYAMAWFRQAPGKEREFVAGMGAVPHYGEFVKGRFTISRDNAKSTVYLQMSSLKPEDTAIYFCARSKSTYISYNSNGYDYWGRGTQVTVSSGGSGGGGSGGQSVLTQPPSVSAAPGQKVTISCSGNTSNIGNNFVSWYQQRPGRAPQLLIYETDKRPSGIPDRFSASKSGTSGTLAITGLQTGDEADYYCATWAASLSSARVFGTGTQVIVLGQPKVNPTVTLFPPSSEELQANKATLVCLISDFYPGAVTVAWKADSSPVKAGVETTTPSKQSNNKYAASSYLSLTPEQWKSHRSYSCQVTHEGSTVEKTVAPTECS
B2: CAP256V2LS-J3-6 (bispecific antibody)
heavy chain: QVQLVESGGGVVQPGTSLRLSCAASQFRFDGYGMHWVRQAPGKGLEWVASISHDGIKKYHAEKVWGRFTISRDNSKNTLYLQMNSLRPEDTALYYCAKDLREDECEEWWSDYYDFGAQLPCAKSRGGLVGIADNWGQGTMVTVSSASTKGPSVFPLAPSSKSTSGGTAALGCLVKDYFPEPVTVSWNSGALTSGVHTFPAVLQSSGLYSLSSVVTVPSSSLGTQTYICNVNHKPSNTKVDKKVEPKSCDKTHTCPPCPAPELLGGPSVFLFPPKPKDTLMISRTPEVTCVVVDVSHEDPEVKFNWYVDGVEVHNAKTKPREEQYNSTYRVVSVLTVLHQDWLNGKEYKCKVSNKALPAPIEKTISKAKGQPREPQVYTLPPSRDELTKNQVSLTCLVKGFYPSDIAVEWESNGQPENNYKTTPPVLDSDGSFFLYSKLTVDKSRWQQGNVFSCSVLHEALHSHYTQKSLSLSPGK
light chain (J3 VHH, linker, CAP256V2LS LC): EVQLVESGGGLVQAGGFLRLSCELRGSIFNQYAMAWFRQAPGKEREFVAGMGAVPHYGEFVKGRFTISRDNAKSTVYLQMSSLKPEDTAIYFCARSKSTYISYNSNGYDYWGRGTQVTVSSDKTHTGDKTHTGDKTHTQSVLTQPPSVSAAPGQKVTISCSGNTSNIGNNFVSWYQQRPGRAPQLLIYETDKRPSGIPDRFSASKSGTSGTLAITGLQTGDEADYYCATWAASLSSARVFGTGTQVIVLGQPKVNPTVTLFPPSSEELQANKATLVCLISDFYPGAVTVAWKADSSPVKAGVETTTPSKQSNNKYAASSYLSLTPEQWKSHRSYSCQVTHEGSTVEKTVAPTECS
B3: CAP256V2LS-10E8-3 (bispecific antibody)
heavy chain: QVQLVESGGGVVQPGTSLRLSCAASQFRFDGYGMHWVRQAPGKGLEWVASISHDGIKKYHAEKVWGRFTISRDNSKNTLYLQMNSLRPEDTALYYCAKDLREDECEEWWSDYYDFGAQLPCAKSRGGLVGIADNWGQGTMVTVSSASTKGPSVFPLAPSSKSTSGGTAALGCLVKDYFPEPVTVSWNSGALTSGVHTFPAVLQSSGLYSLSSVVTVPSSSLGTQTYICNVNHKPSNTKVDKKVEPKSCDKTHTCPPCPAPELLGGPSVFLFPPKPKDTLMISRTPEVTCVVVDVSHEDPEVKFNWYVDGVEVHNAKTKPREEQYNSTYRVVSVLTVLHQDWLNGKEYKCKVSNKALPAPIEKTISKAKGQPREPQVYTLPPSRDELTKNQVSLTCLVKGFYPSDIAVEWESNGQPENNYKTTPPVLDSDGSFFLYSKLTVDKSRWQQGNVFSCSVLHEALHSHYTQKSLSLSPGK
light chain (10E8v4 scFv, linker, CAP256V2LS LC): EVRLVESGGGLVKPGGSLRLSCSASGFDFDNAWMTWVRQPPGKGLEWVGRITGPGEGWSVDYAESVKGRFTISRDNTKNTLYLEMNNVRTEDTGYYFCARTGKYYDFWSGYPPGEEYFQDWGQGTLVIVSSGGGGSGGGGSGGGGSSELTQDPAVSVALKQTVTITCRGDSLRSHYASWYQKKPGQAPVLLFYGKNNRPSGIPDRFSGSASGNRASLTITGAQAEDEADYYCSSRDKSGSRLSVFGGGTKLTVGGSGGGGSGGGGSGGQSVLTQPPSVSAAPGQKVTISCSGNTSNIGNNFVSWYQQRPGRAPQLLIYETDKRPSGIPDRFSASKSGTSGTLAITGLQTGDEADYYCATWAASLSSARVFGTGTQVIVLGQPKVNPTVTLFPPSSEELQANKATLVCLISDFYPGAVTVAWKADSSPVKAGVETTTPSKQSNNKYAASSYLSLTPEQWKSHRSYSCQVTHEGSTVEKTVAPTECS
B4: CAP256V2LS-10E8-1 (bispecific antibody)
heavy chain: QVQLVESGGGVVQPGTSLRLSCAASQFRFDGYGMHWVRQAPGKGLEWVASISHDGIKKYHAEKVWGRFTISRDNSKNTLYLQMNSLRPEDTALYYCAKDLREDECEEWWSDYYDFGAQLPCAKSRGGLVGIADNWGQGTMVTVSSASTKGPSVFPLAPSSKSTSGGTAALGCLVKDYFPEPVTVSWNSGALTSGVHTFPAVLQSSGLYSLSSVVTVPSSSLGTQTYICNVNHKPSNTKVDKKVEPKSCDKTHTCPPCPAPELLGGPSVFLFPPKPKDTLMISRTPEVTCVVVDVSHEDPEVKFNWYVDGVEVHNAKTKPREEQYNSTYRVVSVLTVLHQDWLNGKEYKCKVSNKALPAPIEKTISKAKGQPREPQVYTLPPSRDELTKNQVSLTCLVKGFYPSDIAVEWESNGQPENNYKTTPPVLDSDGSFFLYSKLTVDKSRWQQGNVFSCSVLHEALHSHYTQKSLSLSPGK
light chain (10E8v4 scFv, linker, CAP256V2LS LC): EVRLVESGGGLVKPGGSLRLSCSASGFDFDNAWMTWVRQPPGKGLEWVGRITGPGEGWSVDYAESVKGRFTISRDNTKNTLYLEMNNVRTEDTGYYFCARTGKYYDFWSGYPPGEEYFQDWGQGTLVIVSSGGGGSGGGGSGGGGSSELTQDPAVSVALKQTVTITCRGDSLRSHYASWYQKKPGQAPVLLFYGKNNRPSGIPDRFSGSASGNRASLTITGAQAEDEADYYCSSRDKSGSRLSVFGGGTKLTVGGSGGQSVLTQPPSVSAAPGQKVTISCSGNTSNIGNNFVSWYQQRPGRAPQLLIYETDKRPSGIPDRFSASKSGTSGTLAITGLQTGDEADYYCATWAASLSSARVFGTGTQVIVLGQPKVNPTVTLFPPSSEELQANKATLVCLISDFYPGAVTVAWKADSSPVKAGVETTTPSKQSNNKYAASSYLSLTPEQWKSHRSYSCQVTHEGSTVEKTVAPTECS
B5: CAP256V2LS-J3-3 (bispecific antibody)
heavy: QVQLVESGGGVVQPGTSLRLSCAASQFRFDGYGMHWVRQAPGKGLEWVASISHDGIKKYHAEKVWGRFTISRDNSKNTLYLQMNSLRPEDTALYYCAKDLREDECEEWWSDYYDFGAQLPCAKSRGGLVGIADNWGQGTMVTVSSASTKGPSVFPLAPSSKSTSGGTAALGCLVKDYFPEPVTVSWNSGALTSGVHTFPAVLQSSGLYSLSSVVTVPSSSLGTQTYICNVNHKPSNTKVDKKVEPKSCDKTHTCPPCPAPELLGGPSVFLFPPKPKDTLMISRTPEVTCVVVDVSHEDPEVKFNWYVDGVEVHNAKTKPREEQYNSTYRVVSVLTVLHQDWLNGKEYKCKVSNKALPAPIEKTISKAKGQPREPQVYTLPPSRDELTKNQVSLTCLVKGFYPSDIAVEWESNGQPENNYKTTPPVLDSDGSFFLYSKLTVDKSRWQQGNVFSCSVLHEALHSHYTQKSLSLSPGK
light: EVQLVESGGGLVQAGGFLRLSCELRGSIFNQYAMAWFRQAPGKEREFVAGMGAVPHYGEFVKGRFTISRDNAKSTVYLQMSSLKPEDTAIYFCARSKSTYISYNSNGYDYWGRGTQVTVSSGGSGGGGSGGGGSGGQSVLTQPPSVSAAPGQKVTISCSGNTSNIGNNFVSWYQQRPGRAPQLLIYETDKRPSGIPDRFSASKSGTSGTLAITGLQTGDEADYYCATWAASLSSARVFGTGTQVIVLGQPKVNPTVTLFPPSSEELQANKATLVCLISDFYPGAVTVAWKADSSPVKAGVETTTPSKQSNNKYAASSYLSLTPEQWKSHRSYSCQVTHEGSTVEKTVAPTECS
B6: CAP256V2LS-J3-5 (bispecific antibody)
heavy chain: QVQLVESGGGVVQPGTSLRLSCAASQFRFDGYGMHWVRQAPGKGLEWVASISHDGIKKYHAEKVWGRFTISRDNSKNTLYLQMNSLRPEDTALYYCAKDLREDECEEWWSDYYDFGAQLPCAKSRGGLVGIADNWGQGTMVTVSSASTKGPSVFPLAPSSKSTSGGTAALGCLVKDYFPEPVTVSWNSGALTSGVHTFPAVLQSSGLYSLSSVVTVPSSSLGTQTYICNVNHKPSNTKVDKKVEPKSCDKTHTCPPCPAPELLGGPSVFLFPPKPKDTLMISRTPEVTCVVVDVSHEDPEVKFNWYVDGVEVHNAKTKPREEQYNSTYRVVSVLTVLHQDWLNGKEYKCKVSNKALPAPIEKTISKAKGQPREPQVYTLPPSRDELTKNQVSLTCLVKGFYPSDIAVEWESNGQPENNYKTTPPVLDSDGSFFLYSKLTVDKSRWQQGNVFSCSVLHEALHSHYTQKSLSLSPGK
light chain (J3 VHH, linker, CAP256V2LS LC): EVQLVESGGGLVQAGGFLRLSCELRGSIFNQYAMAWFRQAPGKEREFVAGMGAVPHYGEFVKGRFTISRDNAKSTVYLQMSSLKPEDTAIYFCARSKSTYISYNSNGYDYWGRGTQVTVSSDKTHTGDKTHTQSVLTQPPSVSAAPGQKVTISCSGNTSNIGNNFVSWYQQRPGRAPQLLIYETDKRPSGIPDRFSASKSGTSGTLAITGLQTGDEADYYCATWAASLSSARVFGTGTQVIVLGQPKVNPTVTLFPPSSEELQANKATLVCLISDFYPGAVTVAWKADSSPVKAGVETTTPSKQSNNKYAASSYLSLTPEQWKSHRSYSCQVTHEGSTVEKTVAPTECS
B7: CAP256V2LS-10E8-2 (bispecific antibody)
heavy chain: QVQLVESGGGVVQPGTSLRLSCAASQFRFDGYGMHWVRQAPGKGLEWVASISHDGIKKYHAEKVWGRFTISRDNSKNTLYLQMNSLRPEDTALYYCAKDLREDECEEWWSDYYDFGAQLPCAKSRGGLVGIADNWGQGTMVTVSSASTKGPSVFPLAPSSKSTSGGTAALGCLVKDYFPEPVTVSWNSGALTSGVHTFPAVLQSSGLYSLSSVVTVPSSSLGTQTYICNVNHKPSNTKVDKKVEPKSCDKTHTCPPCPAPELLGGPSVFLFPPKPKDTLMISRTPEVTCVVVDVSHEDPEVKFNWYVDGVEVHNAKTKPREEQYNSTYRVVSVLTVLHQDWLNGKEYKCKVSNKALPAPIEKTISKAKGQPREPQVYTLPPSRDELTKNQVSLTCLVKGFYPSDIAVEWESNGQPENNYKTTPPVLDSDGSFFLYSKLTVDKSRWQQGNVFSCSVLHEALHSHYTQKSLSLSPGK
light chain (10E8v4 scFv, linker, CAP256V2LS LC): EVRLVESGGGLVKPGGSLRLSCSASGFDFDNAWMTWVRQPPGKGLEWVGRITGPGEGWSVDYAESVKGRFTISRDNTKNTLYLEMNNVRTEDTGYYFCARTGKYYDFWSGYPPGEEYFQDWGQGTLVIVSSGGGGSGGGGSGGGGSSELTQDPAVSVALKQTVTITCRGDSLRSHYASWYQKKPGQAPVLLFYGKNNRPSGIPDRFSGSASGNRASLTITGAQAEDEADYYCSSRDKSGSRLSVFGGGTKLTVGGSGGGGSGGQSVLTQPPSVSAAPGQKVTISCSGNTSNIGNNFVSWYQQRPGRAPQLLIYETDKRPSGIPDRFSASKSGTSGTLAITGLQTGDEADYYCATWAASLSSARVFGTGTQVIVLGQPKVNPTVTLFPPSSEELQANKATLVCLISDFYPGAVTVAWKADSSPVKAGVETTTPSKQSNNKYAASSYLSLTPEQWKSHRSYSCQVTHEGSTVEKTVAPTECS

Experiments:
Assay in all cases: cell-based or functional assay
[1] = target: HIV-1 Env of strain SC422.8 (Env-pseudotyped virus) (HIV-1)
[2] = target: T1, HIV-1 Env of strain WITO.33 (Env-pseudotyped virus) (HIV-1)
CAP256 wk34c80 = CAP256 wk34c80 (HIV-1)
[3] = target: T1, HIV-1 Env of strain WITO.33 …; remark: listed apart in the source

Binder | neutralization potency, fold better than that of J3 [1] [fold] | neutralization potency, fold better than that of J3 [2] [fold] | % neutralization, single point, Env-pseudotyped virus on TZM-bl (CAP256 wk34c80) [%] | % neutralization, single point, Env-pseudotyped virus on TZM-bl [3] [%]
B1 | 3 | ~10 | 100 | 100
B2 |  |  | 100 | 48
B3 |  |  | 99 | 21
B4 |  |  | 98 | 14
B5 | 3 | ~10 | 100 | 89
B6 |  |  | 100 | 62
B7 |  |  | 91 | 45

Source: patent US20250197482A1 (UNITED STATES OF AMERICA AS REPRESENTED BY THE SECRETARY …, published 2025)
